Experimental data reported in IntAct's records for PubMed 14681217.

B1: Integrin beta-7 (Homo sapiens), P26010 (parent)
chain: MVALPMVLVLLLVLSRGESELDAKIPSTGDATEWRNPHLSMLGSCQPAPSCQKCILSHPSCAWCKQLNFTASGEAEARRCARREELLARGCPLEELEEPRGQQEVLQDQPLSQGARGEGATQLAPQRVRVTLRPGEPQQLQVRFLRAEGYPVDLYYLMDLSYSMKDDLERVRQLGHALLVRLQEVTHSVRIGFGSFVDKTVLPFVSTVPSKLRHPCPTRLERCQSPFSFHHVLSLTGDAQAFEREVGRQSVSGNLDSPEGGFDAILQAALCQEQIGWRNVSRLLVFTSDDTFHTAGDGKLGGIFMPSDGHCHLDSNGLYSRSTEFDYPSVGQVAQALSAANIQPIFAVTSAALPVYQELSKLIPKSAVGELSEDSSNVVQLIMDAYNSLSSTVTLEHSSLPPGVHISYESQCEGPEKREGKAEDRGQCNHVRINQTVTFWVSLQATHCLPEPHLLRLRALGFSEELIVELHTLCDCNCSDTQPQAPHCSDGQGHLQCGVCSCAPGRLGRLCECSVAELSSPDLESGCRAPNGTGPLCSGKGHCQCGRCSCSGQSSGHLCECDDASCERHEGILCGGFGRCQCGVCHCHANRTGRACECSGDMDSCISPEGGLCSGHGRCKCNRCQCLDGYYGALCDQCPGCKTPCERHRDCAECGAFRTGPLATNCSTACAHTNVTLALAPILDDGWCKERTLDNQLFFFLVEDDARGTVVLRVRPQEKGADHTQAIVLGCVGGIVAVGLGLVLAYRLSVEIYDRREYSRFEKEQQQLNWKQDSNPLYKSAITTTINPRFQEADSPTL

Variants of: B1
Details: with ita4_human ITGA4, P13612
ita4_human ITGA4, P13612, sequence (P13612 whole entry): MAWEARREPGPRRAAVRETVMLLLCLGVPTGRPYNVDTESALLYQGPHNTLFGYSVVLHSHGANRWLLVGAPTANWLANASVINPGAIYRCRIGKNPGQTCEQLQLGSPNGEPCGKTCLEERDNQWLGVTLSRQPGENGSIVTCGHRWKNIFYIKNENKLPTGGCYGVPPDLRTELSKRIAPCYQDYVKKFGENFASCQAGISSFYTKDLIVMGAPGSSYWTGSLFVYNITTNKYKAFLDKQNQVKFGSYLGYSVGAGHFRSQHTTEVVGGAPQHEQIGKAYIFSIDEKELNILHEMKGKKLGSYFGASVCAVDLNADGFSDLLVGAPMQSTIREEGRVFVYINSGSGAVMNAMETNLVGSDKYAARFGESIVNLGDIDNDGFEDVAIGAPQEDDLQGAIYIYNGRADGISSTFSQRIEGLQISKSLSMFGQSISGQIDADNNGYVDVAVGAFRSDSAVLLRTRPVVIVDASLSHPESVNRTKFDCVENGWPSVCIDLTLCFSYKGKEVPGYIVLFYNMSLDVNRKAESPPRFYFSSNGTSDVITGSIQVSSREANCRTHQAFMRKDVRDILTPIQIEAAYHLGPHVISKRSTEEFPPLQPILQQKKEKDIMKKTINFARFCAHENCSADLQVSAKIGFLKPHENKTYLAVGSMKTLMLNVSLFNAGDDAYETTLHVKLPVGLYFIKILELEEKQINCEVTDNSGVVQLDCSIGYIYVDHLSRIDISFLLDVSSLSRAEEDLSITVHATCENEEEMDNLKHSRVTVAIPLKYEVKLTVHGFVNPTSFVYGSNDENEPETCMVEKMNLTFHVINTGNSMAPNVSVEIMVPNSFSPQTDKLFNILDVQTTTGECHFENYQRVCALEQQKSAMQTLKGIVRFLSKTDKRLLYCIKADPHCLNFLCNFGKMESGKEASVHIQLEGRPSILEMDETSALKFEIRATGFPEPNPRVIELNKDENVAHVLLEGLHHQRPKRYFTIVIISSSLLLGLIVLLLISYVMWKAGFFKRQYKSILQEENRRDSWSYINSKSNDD

| Variant | effect of a mutation on the interaction |
| --- | --- |
| G730I | decreasing interaction |
| G734I | decreasing interaction |
